This test addresses chicken F-actin (chicken) (UniProt P68139). In words: co-sedimentation.

Consider “Drosophila indirect flight muscle myosin isoform (IFI) subfragment-1 (S1), S532P mutant (domain or fragment)”, for which the Kd turned out to be 2 µM.
Then “Drosophila indirect flight muscle myosin isoform (IFI) subfragment-1 (S1), wild-type control (domain or fragment)”, with 1.26 µM.

In general, Kd refers to the constant that tells how readily two partners part at equilibrium.

The record behind these values is paper PMC8684735.
